Assay results published in patent US20240018502A1.
Where a chain is given by its changes, count along the chain named. Numbers in names are those of the source.

B1: MTSP-1 protease domain Q38H/I41S/D60bT/F60eS/Y60gW/F97D/F99L/C122S/G151N/Q175L/Q192D (enzyme)
chain: VVGGTDADEGEWPWQVSLHALGHGHSCGASLISPNWLVSAAHCYIDTRGSRWSDPTQWTAFLGLHDQSQRSAPGVQERRLKRIISHPFFNDDTLDYDIALLELEKPAEYSSMVRPISLPDASHVFPAGKAIWVTGWGHTQYGGTNALILQKGEIRVINQTTCENLLPQLITPRMMCVGFLSGGVDSCDGDSGGPLSSVEADGRIFQAGVVSWGDGCAQRNKPGVYTRLPLFRDWIKENTGV
B2: MTSP-1 protease domain Q38H/I41S/D60bT/F60eG/D96P/F97N/T98G/F99L/C122S/G151Q/Q175L/Q192D (enzyme)
chain: B1 chain with S50G, W52Y, D91P, D92N, T93G, N145Q
B3: MTSP-1 protease domain Q38H/I41S/D60bT/F60eG/Y60gW/D96V/F97N/T98G/F99L/C122S/G151N/Q175L/Q192D (enzyme)
chain: B1 chain with S50G, D91V, D92N, T93G
B4: MTSP-1 protease domain Q38K/I41G/D60bT/F60eG/Y60gW/D96L/F97N/T98G/F99L/C122S/G151N/Q175L/Q192D (enzyme)
chain: B1 chain with H23K, S26G, S50G, D91L, D92N, T93G
B5: MTSP-1 protease domain Q38Y/I41A/D60bT/F60eG/Y60gW/D96V/F97N/T98G/F99L/C122S/G151H/Q175L/Q192D (enzyme)
chain: B1 chain with H23Y, S26A, S50G, D91V, D92N, T93G, N145H
B6: MTSP-1 protease domain Q38E/I41S/D60bV/F60eK/Y60gW/D96P/F97N/T98G/F99L/C122S/G151N/Q175L/Q192D (enzyme)
chain: B1 chain with H23E, T47V, S50K, D91P, D92N, T93G
B7: MTSP-1 protease domain Q38E/I41S/D60bW/F60eG/D96M/F97N/T98G/F99L/C122S/G151N/Q175L/Q192D (enzyme)
chain: B1 chain with H23E, T47W, S50G, W52Y, D91M, D92N, T93G
B8: MTSP-1 protease domain Q38M/I41S/F60eH/Y60gW/D96Y/F97N/T98G/F99L/C122S/G151N/Q175L/Q192D (enzyme)
chain: B1 chain with H23M, T47D, S50H, D91Y, D92N, T93G
B9: MTSP-1 protease domain Q38K/I41G/F60eG/Y60gW/D96P/F97N/T98G/F99L/C122S/G151N/Q175L/Q192D (enzyme)
chain: B1 chain with H23K, S26G, T47D, S50G, D91P, D92N, T93G
B10: MTSP-1 protease domain Q38H/I41S/D60bT/F60eS/Y60gW/F97D/T98P/F99L/C122S/G151H/Q175L/Q192E (enzyme)
chain: B1 chain with T93P, N145H, D188E
B11: MTSP-1 protease domain Q38Y/I41E/D60bS/F60eV/Y60gF/D96W/F97N/T98G/F99L/C122S/G151N/Q175L/Q192D (enzyme)
chain: B1 chain with H23Y, S26E, T47S, S50V, W52F, D91W, D92N, T93G
B12: MTSP-1 protease domain with C122S (enzyme)
chain: B1 chain with H23Q, S26I, T47D, S50F, W52Y, D92F, L94F, N145G, L169Q, D188Q
B13: MTSP-1 protease domain Q38H/I41S/D60bT/F60eG/D96Y/F97N/T98G/F99L/C122S/G151N/Q175L/Q192D (enzyme)
chain: B1 chain with S50G, W52Y, D91Y, D92N, T93G
B14: MTSP-1 protease domain Q38V/I41G/F60eG/Y60gW/D96P/F97N/T98G/F99L/C122S/G151N/Q175L/Q192D (enzyme)
chain: B1 chain with H23V, S26G, T47D, S50G, D91P, D92N, T93G
B15: MTSP-1 protease domain Q38H/I41A/D60bV/F60eR/Y60gW/F97D/F99L/C122S/G151N/Q175L/Q192D (enzyme)
chain: B1 chain with S26A, T47V, S50R
B16: MTSP-1 protease domain Q38H/I41A/D60bV/F60eR/Y60gW/F97D/F99L/C122S/G151H/Q175L/Q192D (enzyme)
chain: B1 chain with S26A, T47V, S50R, N145H
B17: MTSP-1 protease domain Q38H/I41S/D60bT/F60eS/Y60gW/D96I/F97N/T98G/F99L/C122S/G151N/Q175L/Q192D (enzyme)
chain: B1 chain with D91I, D92N, T93G
B18: MTSP-1 protease domain Q38K/I41G/D60bT/F60eG/Y60gW/D96P/F97N/T98G/F99L/C122S/G151N/Q175L/Q192D (enzyme)
chain: B1 chain with H23K, S26G, S50G, D91P, D92N, T93G
B19: MTSP-1 protease domain Q38H/I41S/D60bT/F60eS/Y60gW/D96Y/ins97aV/F97E/T98G/F99L/C122S/G151N/Q175L/Q192D (enzyme)
chain: VVGGTDADEGEWPWQVSLHALGHGHSCGASLISPNWLVSAAHCYIDTRGSRWSDPTQWTAFLGLHDQSQRSAPGVQERRLKRIISHPFFNYEVGLDYDIALLELEKPAEYSSMVRPISLPDASHVFPAGKAIWVTGWGHTQYGGTNALILQKGEIRVINQTTCENLLPQLITPRMMCVGFLSGGVDSCDGDSGGPLSSVEADGRIFQAGVVSWGDGCAQRNKPGVYTRLPLFRDWIKENTGV
B20: MTSP-1 protease domain Q38H/I41A/D60bV/F60eR/Y60gW/D96F/F97E/ins97aS/T98G/F99M/C122S/G151N/Q175L/Q192G (enzyme)
chain: B19 chain with S26A, T47V, S50R, Y91F, V93S, L95M, D189G
B21: MTSP-1 protease domain Q38H/I41A/D60bV/F60eR/Y60gW/D96P/ins97aN/F97W/T98G/F99L/C122S/G151H/Q175L/Q192E (enzyme)
chain: B19 chain with S26A, T47V, S50R, Y91P, E92W, V93N, N146H, D189E
B22: MTSP-1 protease domain I41S/D60bT/F60eS/Y60gW/ins97aV/F97D/T98P/F99L/C122S/G151H/Q175L/Q192E (enzyme)
chain: B19 chain with H23Q, Y91D, E92D, G94P, N146H, D189E
B23: MTSP-1 protease domain Q38H/I41S/D60bT/Y60gW/ins97aV/F97D/T98P/F99L/C122S/G151H/Q175L/Q192E (enzyme)
chain: B19 chain with S50F, Y91D, E92D, G94P, N146H, D189E
B24: MTSP-1 Q38H/I41S/D60bT/F60eS/Y60gW/F97D/ins97aV/T98P/F99L/C122S/G151H/Q175L/Q192E (enzyme)
chain: B19 chain with Y91D, E92D, G94P, N146H, D189E
B25: MTSP-1 protease domain Q38H/D60bT/F60eS/Y60gW/ins97aV/F97D/T98P/F99L/C122S/G151H/Q175L/Q192E (enzyme)
chain: B19 chain with S26I, Y91D, E92D, G94P, N146H, D189E
B26: MTSP-1 protease domain Q38H/I41S/F60eS/Y60gW/ins97aV/F97D/T98P/F99L/C122S/G151H/Q175L/Q192E (enzyme)
chain: B19 chain with T47D, Y91D, E92D, G94P, N146H, D189E
B27: MTSP-1 protease domain Q38H/I41S/D60bT/F60eS/Y60gW/ins97aV/F97D/T98P/F99L/C122S/Q175L/Q192E (enzyme)
chain: B19 chain with Y91D, E92D, G94P, N146G, D189E
B28: MTSP-1 protease domain Q38H/I41S/D60bT/F60eS/Y60gW/ins97aV/F97D/T98P/C122S/G151H/Q175L/Q192E (enzyme)
chain: B19 chain with Y91D, E92D, G94P, L95F, N146H, D189E
B29: MTSP-1 protease domain Q38H/I41S/D60bT/F60eS/Y60gW/F97D/ins97aV/T98P/F99L/C122S/G151H/Q192E (enzyme)
chain: B19 chain with Y91D, E92D, G94P, N146H, L170Q, D189E
B30: MTSP-1 protease domain Q38H/I41A/D60bV/F60eR/Y60gW/D96P/ins97aN/F97W/T98G/F99L/C122S/G151N/Q175L/Q192D (enzyme)
chain: B19 chain with S26A, T47V, S50R, Y91P, E92W, V93N
B31: MTSP-1 protease domain Q38H/I41S/D60bT/F60eS/Y60gW/F97D/ins97aA/T98P/F99L/C122S/G151H/Q175L/Q192E (enzyme)
chain: B19 chain with Y91D, E92D, V93A, G94P, N146H, D189E
B32: MTSP-1 protease domain Q38H/I41A/D60bV/F60eR/Y60gW/D96P/ins97aN/F97W/T98G/F99L/C122S/G151H/Q175L/Q192D (enzyme)
chain: B19 chain with S26A, T47V, S50R, Y91P, E92W, V93N, N146H
B33: MTSP-1 protease domain Q38H/I41S/D60bT/F60eS/Y60gW/ins97aV/F97D/T98P/F99L/C122S/G151H/Q175L (enzyme)
chain: B19 chain with Y91D, E92D, G94P, N146H, D189Q
B34: MTSP-1 protease domain Q38H/I41A/D60bV/F60eR/Y60gW/D96W/F97D/ins97aD/T98G/F99L/C122S/G151N/Q175L/Q192G (enzyme)
chain: B19 chain with S26A, T47V, S50R, Y91W, E92D, V93D, D189G
B35: MTSP-1 Q38H/I41A/D60bT/F60eK/Y60gW/F97T/ins97aE/T98G/F99L/C122S/G151N/Q175L/Q192D (enzyme)
chain: B19 chain with S26A, S50K, Y91D, E92T, V93E
B36: MTSP-1 protease domain Q38H/I41A/D60bV/F60eR/Y60gW/D96F/F97D/ins97aE/T98G/F99M/C122S/G151N/Q175L/Q192R (enzyme)
chain: B19 chain with S26A, T47V, S50R, Y91F, E92D, V93E, L95M, D189R
B37: MTSP-1 protease domain Q38H/I41S/D60bT/F60eS/Y60gW/ins97aV/F97D/F99L/C122S/G151H/Q175L/Q192E (enzyme)
chain: B19 chain with Y91D, E92D, G94T, N146H, D189E
B38: MTSP-1 protease domain Q38H/I41S/D60bT/F60eS/Y60gW/ins97aV/T98P/F99L/C122S/G151H/Q175L/Q192E (enzyme)
chain: B19 chain with Y91D, E92F, G94P, N146H, D189E
B39: MTSP-1 protease domain Q38H/I41A/D60bV/F60eR/Y60gW/D96F/F97E/ins97aT/T98G/F99M/C122S/G151N/Q175L/Q192G (enzyme)
chain: B19 chain with S26A, T47V, S50R, Y91F, V93T, L95M, D189G

What follows are binders tested against plasma purified human complement protein C3 (human) (UniProt P01024) (assay: cell-based or functional assay).
plasma purified human complement protein C3 (human), sequence (P01024 23-667, chain 1 of 2): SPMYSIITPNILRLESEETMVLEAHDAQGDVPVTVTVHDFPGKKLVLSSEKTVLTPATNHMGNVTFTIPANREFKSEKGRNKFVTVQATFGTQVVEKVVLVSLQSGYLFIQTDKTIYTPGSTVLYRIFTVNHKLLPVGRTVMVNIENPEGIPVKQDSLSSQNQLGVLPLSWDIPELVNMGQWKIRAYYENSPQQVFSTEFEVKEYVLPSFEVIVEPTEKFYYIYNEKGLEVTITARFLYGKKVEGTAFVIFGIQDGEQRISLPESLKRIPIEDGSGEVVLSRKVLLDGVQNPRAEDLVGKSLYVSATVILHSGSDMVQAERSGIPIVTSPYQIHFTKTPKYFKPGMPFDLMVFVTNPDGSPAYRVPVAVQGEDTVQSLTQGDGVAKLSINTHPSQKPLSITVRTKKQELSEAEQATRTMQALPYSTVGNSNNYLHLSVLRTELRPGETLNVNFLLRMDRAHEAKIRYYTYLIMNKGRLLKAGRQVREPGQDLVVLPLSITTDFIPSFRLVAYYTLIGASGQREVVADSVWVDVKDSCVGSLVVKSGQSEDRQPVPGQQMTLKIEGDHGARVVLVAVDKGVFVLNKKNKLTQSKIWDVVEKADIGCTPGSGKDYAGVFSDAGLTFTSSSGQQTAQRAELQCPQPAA
plasma purified human complement protein C3 (human), sequence (P01024 672-1663, chain 2 of 2): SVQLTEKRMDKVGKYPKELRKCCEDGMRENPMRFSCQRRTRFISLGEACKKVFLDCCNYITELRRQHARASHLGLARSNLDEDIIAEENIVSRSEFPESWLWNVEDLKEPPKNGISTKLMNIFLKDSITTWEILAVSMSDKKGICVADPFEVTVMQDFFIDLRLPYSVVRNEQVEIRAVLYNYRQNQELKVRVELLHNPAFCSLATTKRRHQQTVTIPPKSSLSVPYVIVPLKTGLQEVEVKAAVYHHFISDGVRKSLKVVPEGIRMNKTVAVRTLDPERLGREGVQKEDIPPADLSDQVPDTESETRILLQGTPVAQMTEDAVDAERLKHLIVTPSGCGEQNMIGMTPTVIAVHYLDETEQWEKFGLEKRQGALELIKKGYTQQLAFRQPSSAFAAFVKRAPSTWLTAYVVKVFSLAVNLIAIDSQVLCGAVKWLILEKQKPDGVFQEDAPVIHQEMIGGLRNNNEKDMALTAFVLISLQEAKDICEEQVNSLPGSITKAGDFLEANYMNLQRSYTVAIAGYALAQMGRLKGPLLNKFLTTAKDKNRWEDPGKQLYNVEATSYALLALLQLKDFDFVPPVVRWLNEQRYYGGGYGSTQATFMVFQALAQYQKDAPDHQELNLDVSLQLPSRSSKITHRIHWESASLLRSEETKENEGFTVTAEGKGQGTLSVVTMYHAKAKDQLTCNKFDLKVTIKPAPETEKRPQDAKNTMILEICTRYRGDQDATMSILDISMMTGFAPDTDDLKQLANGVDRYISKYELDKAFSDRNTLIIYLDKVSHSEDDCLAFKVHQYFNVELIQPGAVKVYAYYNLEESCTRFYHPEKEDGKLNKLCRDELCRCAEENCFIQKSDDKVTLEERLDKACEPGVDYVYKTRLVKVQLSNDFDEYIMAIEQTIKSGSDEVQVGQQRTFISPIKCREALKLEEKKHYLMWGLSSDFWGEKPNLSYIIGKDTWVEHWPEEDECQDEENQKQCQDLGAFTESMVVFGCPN

In order of rising EC50 hC3 cleavage:
1. B21  1.11 nM
2. B33  1.31 nM
3. B32  1.83 nM
4. B30  2.54 nM
5. B17  3.04 nM
6. B38  3.19 nM
7. B16  3.72 nM
8. B26  3.83 nM
9. B31  4.07 nM
10. B19  4.13 nM
11. B3  4.47 nM
12. B27  4.86 nM
13. B1  4.9 nM
14. B5  5.06 nM
15. B34  5.28 nM
16. B22  6.33 nM
17. B15  7.04 nM
18. B37  7.82 nM
19. B13  9.56 nM
20. B23  10.4 nM
21. B28  11.5 nM
22. B29  11.9 nM
23. B4  12.5 nM
24. B36  13.1 nM
25. B39  16.9 nM
26. B20  21.3 nM
27. B8  21.6 nM
28. B7  22.3 nM
29. B10  25.7 nM
30. B14  27.4 nM
31. B18  27.4 nM
32. B2  34.2 nM
33. B6  45.9 nM
34. B9  62.7 nM
35. B25  66.7 nM
36. B11  227 nM

In order of falling EC50 of hC3 cleavage:
1. B35  14.4 nM
2. B12  13.9 nM
3. B24  6.68 nM
